# Measured values published in the supplement of paper PMC9112550, “Optimization of the antimicrobial peptide Bac7 by deep mutational scanning” (BMC Biology, 2022).
# Tested on: Escherichia coli TOP10
# Experiment: shrunken log2 fold change of peptide-encoding DNA abundance (4.5 h post-induction vs induction); higher = less antimicrobial activity (less host growth inhibition)
# Details: time post-induction: 4.5 h; library: site-saturation at positions 5, 18, 19, 20
# 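Note: peptides expressed intracellularly from a pBAD plasmid library in pooled LB shake-flask culture, induced with 0.3% L-arabinose, DNA abundance read by NGS, three biological replicates, DESeq2 with apeglm shrinkage.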
row,Sequence,shrunken log2 fold change
1,RRIRERPPRLPRPRPRPTKWPRP,0.155
2,RRIRARPPRLPRPRPRPEKNPRP,0.538
3,RRIRGRPPRLPRPRPRPNEIPRP,0.559
4,RRIRKRPPRLPRPRPRPVNNPRP,-0.241
5,RRIRERPPRLPRPRPRPYSYPRP,-0.0155
6,RRIRFRPPRLPRPRPRPHMQPRP,-0.725
7,RRIRWRPPRLPRPRPRPTIWPRP,0.0311
8,RRIRWRPPRLPRPRPRPYRIPRP,-0.209
9,RRIRPRPPRLPRPRPRPPAVPRP,0.37
10,RRIRERPPRLPRPRPRPHEGPRP,0.127
11,RRIRMRPPRLPRPRPRPKFKPRP,-0.0108
12,RRIRKRPPRLPRPRPRPDDHPRP,0.0199
13,RRIRVRPPRLPRPRPRPMIYPRP,-0.38
14,RRIRIRPPRLPRPRPRPYWNPRP,-0.694
15,RRIRTRPPRLPRPRPRPEGEPRP,-0.0398
16,RRIRYRPPRLPRPRPRPDQPPRP,0.0375
17,RRIRMRPPRLPRPRPRPKYIPRP,-0.161
18,RRIRMRPPRLPRPRPRPKAMPRP,0.705
19,RRIRWRPPRLPRPRPRPYIFPRP,-0.242
20,RRIRLRPPRLPRPRPRPALVPRP,-0.0636
21,RRIRVRPPRLPRPRPRPNACPRP,0.215
22,RRIRYRPPRLPRPRPRPIQAPRP,0.107
23,RRIRLRPPRLPRPRPRPSYTPRP,-0.792
24,RRIRSRPPRLPRPRPRPDAHPRP,0.0464
25,RRIRLRPPRLPRPRPRPENKPRP,-0.328

row,Sequence,shrunken log2 fold change
1,RRIRQRPPRLPRPRPRPIRHPRP,-0.182
2,RRIRARPPRLPRPRPRPDLKPRP,0.523
3,RRIRWRPPRLPRPRPRPIYNPRP,-0.896
4,RRIRKRPPRLPRPRPRPGYRPRP,0.129
5,RRIRSRPPRLPRPRPRPWSTPRP,-0.696
6,RRIRNRPPRLPRPRPRPLQMPRP,-0.0999
7,RRIRPRPPRLPRPRPRPFYDPRP,-0.138
8,RRIRIRPPRLPRPRPRPYDYPRP,-0.0343
9,RRIRNRPPRLPRPRPRPECNPRP,-0.0153
10,RRIRLRPPRLPRPRPRPHAEPRP,-0.203
11,RRIRERPPRLPRPRPRPDKAPRP,-0.0525
12,RRIRERPPRLPRPRPRPGGDPRP,0.0586
13,RRIRGRPPRLPRPRPRPNHWPRP,0.309
14,RRIRVRPPRLPRPRPRPATCPRP,-0.164
15,RRIRRRPPRLPRPRPRPKDSPRP,0.191
16,RRIRDRPPRLPRPRPRPCGHPRP,0.232
17,RRIRPRPPRLPRPRPRPWGGPRP,0.702
18,RRIRTRPPRLPRPRPRPDEVPRP,-0.0587
19,RRIRRRPPRLPRPRPRPLEGPRP,0.0703
20,RRIRWRPPRLPRPRPRPHRGPRP,-0.0412
21,RRIRYRPPRLPRPRPRPINMPRP,-0.281
22,RRIRWRPPRLPRPRPRPIRLPRP,-0.268
23,RRIRARPPRLPRPRPRPMCMPRP,0.272
24,RRIRVRPPRLPRPRPRPGLAPRP,0.166
25,RRIRWRPPRLPRPRPRPKERPRP,0.0355

row,Sequence,shrunken log2 fold change
1,RRIRWRPPRLPRPRPRPWASPRP,0.014
2,RRIRGRPPRLPRPRPRPWGRPRP,0.413
3,RRIRRRPPRLPRPRPRPIGEPRP,-0.00811
4,RRIRCRPPRLPRPRPRPREYPRP,-0.22
5,RRIRERPPRLPRPRPRPMLSPRP,-0.376
6,RRIRQRPPRLPRPRPRPVEFPRP,0.0188
7,RRIRVRPPRLPRPRPRPLWNPRP,-0.197
8,RRIRTRPPRLPRPRPRPGIWPRP,-0.0153
9,RRIRERPPRLPRPRPRPIGEPRP,0.128
10,RRIRLRPPRLPRPRPRPCFGPRP,-0.0493
11,RRIRIRPPRLPRPRPRPRCTPRP,-0.141
12,RRIRRRPPRLPRPRPRPPGQPRP,0.422
13,RRIRYRPPRLPRPRPRPCFRPRP,-0.266
14,RRIRPRPPRLPRPRPRPISEPRP,-0.303
15,RRIRRRPPRLPRPRPRPFKTPRP,-0.0587
16,RRIRGRPPRLPRPRPRPAPTPRP,1.2
17,RRIRPRPPRLPRPRPRPCWQPRP,-0.021
18,RRIRQRPPRLPRPRPRPYYMPRP,-0.614
19,RRIRPRPPRLPRPRPRPFGHPRP,-0.0335
20,RRIRGRPPRLPRPRPRPKIMPRP,0.322
21,RRIRNRPPRLPRPRPRPPDCPRP,0.036
22,RRIRYRPPRLPRPRPRPPIPPRP,0.31
23,RRIRYRPPRLPRPRPRPCHFPRP,-0.0527
24,RRIRHRPPRLPRPRPRPDRLPRP,-0.0627
25,RRIRGRPPRLPRPRPRPWWIPRP,0.0656

row,Sequence,shrunken log2 fold change
1,RRIRRRPPRLPRPRPRPEPVPRP,0.367
2,RRIRSRPPRLPRPRPRPIECPRP,-0.139
3,RRIRTRPPRLPRPRPRPGLFPRP,0.458
4,RRIRNRPPRLPRPRPRPHRYPRP,-0.345
5,RRIRYRPPRLPRPRPRPREVPRP,0.00495
6,RRIRARPPRLPRPRPRPQCAPRP,0.216
7,RRIRTRPPRLPRPRPRPNLRPRP,-0.184
8,RRIRTRPPRLPRPRPRPHTEPRP,-0.215
9,RRIRTRPPRLPRPRPRPRACPRP,0.608
10,RRIRSRPPRLPRPRPRPCNAPRP,-0.0263
11,RRIRKRPPRLPRPRPRPTVSPRP,0.099
12,RRIRSRPPRLPRPRPRPRCVPRP,0.116
13,RRIRPRPPRLPRPRPRPGLNPRP,0.0174
14,RRIRYRPPRLPRPRPRPHFHPRP,-0.489
15,RRIRWRPPRLPRPRPRPIIIPRP,0.117
16,RRIRDRPPRLPRPRPRPVDHPRP,-0.173
17,RRIRIRPPRLPRPRPRPPNVPRP,0.0421
18,RRIRVRPPRLPRPRPRPYPLPRP,-0.478
19,RRIRYRPPRLPRPRPRPHMIPRP,-0.734
20,RRIRQRPPRLPRPRPRPIREPRP,-0.0225
21,RRIRERPPRLPRPRPRPFHKPRP,-0.355
22,RRIRVRPPRLPRPRPRPLRMPRP,0.191
23,RRIRERPPRLPRPRPRPKFYPRP,-0.519
24,RRIRIRPPRLPRPRPRPTFGPRP,-0.28
25,RRIRHRPPRLPRPRPRPSKNPRP,-0.163

row,Sequence,shrunken log2 fold change
1,RRIRKRPPRLPRPRPRPEDAPRP,0.054
2,RRIRKRPPRLPRPRPRPICDPRP,0.0999
3,RRIRPRPPRLPRPRPRPHKMPRP,-0.403
4,RRIRHRPPRLPRPRPRPDVRPRP,-0.00783
5,RRIRLRPPRLPRPRPRPRWDPRP,0.141
6,RRIRNRPPRLPRPRPRPMYRPRP,-0.473
7,RRIRERPPRLPRPRPRPNIYPRP,-0.538
8,RRIRYRPPRLPRPRPRPLKKPRP,-0.339
9,RRIRERPPRLPRPRPRPIPIPRP,-0.027
10,RRIRSRPPRLPRPRPRPYTGPRP,-0.125
11,RRIRSRPPRLPRPRPRPTPIPRP,0.0944
12,RRIRKRPPRLPRPRPRPCQEPRP,-0.0342
13,RRIRNRPPRLPRPRPRPSCAPRP,-0.0999
14,RRIRSRPPRLPRPRPRPVPMPRP,1.32
15,RRIRYRPPRLPRPRPRPCSYPRP,-0.0018
16,RRIRWRPPRLPRPRPRPHGDPRP,0.145
17,RRIRLRPPRLPRPRPRPGHCPRP,0.0372
18,RRIRLRPPRLPRPRPRPKTHPRP,-0.0161
19,RRIRGRPPRLPRPRPRPGQIPRP,0.352
20,RRIRVRPPRLPRPRPRPYLMPRP,-0.587
21,RRIRERPPRLPRPRPRPANNPRP,-0.598
22,RRIRHRPPRLPRPRPRPMQMPRP,-0.00907
23,RRIRYRPPRLPRPRPRPCYYPRP,-1.03
24,RRIRARPPRLPRPRPRPECMPRP,1.41
25,RRIRGRPPRLPRPRPRPMTDPRP,0.603

row,Sequence,shrunken log2 fold change
1,RRIRLRPPRLPRPRPRPQMSPRP,-0.111
2,RRIRMRPPRLPRPRPRPQDHPRP,-0.0101
3,RRIRARPPRLPRPRPRPWQPPRP,0.0351
4,RRIRRRPPRLPRPRPRPPFVPRP,0.675
5,RRIRIRPPRLPRPRPRPRRDPRP,-0.108
6,RRIRDRPPRLPRPRPRPNSMPRP,0.0952
7,RRIRSRPPRLPRPRPRPPRIPRP,0.132
8,RRIRLRPPRLPRPRPRPRPVPRP,0.637
9,RRIRMRPPRLPRPRPRPDMHPRP,1.15
10,RRIRHRPPRLPRPRPRPWSTPRP,-0.0631
11,RRIRWRPPRLPRPRPRPEKIPRP,2.76
12,RRIRRRPPRLPRPRPRPLLYPRP,0.138
13,RRIRIRPPRLPRPRPRPDNPPRP,-0.152
14,RRIRPRPPRLPRPRPRPQASPRP,-0.137
15,RRIRHRPPRLPRPRPRPPPDPRP,0.646
16,RRIRRRPPRLPRPRPRPPRLPRP,1.1
17,RRIRLRPPRLPRPRPRPEYGPRP,-0.029
18,RRIRQRPPRLPRPRPRPNAEPRP,0.053
19,RRIRYRPPRLPRPRPRPMQAPRP,-0.0122
20,RRIRPRPPRLPRPRPRPNIMPRP,-0.694
21,RRIRMRPPRLPRPRPRPAVTPRP,0.177
22,RRIRERPPRLPRPRPRPSFSPRP,-0.765
23,RRIRCRPPRLPRPRPRPVWNPRP,0.0577
24,RRIRGRPPRLPRPRPRPLRSPRP,1.67
25,RRIRPRPPRLPRPRPRPWETPRP,0.124
